{"source": "patent US20110239311A1", "about": "“Agonists of NR2F6 For Immunosupression” (Medizinische Universitat Innsbruck, priority 2008, published 2011)", "key": {"[1]": {"test_system": "NFAT/AP-1 promoter:luciferase reporter", "experiment": "NFAT/AP-1 promoter:luciferase reporter transrepression assay in Jurkat cells", "assay_type": "cell-based, human", "details": "transient overexpression in Jurkat cells", "description": "(§1) Jurkat-TAg cells (a kind gift from Dr. Crabtree, Stanford University, CA) have been transiently transfected with circular plasmid DNA by electroporation (BTX-T820 ElectroSquarePorator™, ITC, Biotech, Heidelberg, Germany), using predetermined optimal conditions (1×10^7 cells in 200 μl RPMI medium at 450 V/cm and 5 pulses of 99 msec), yielding approx. 40% transfection efficiency. NF-AT:AP-1 reporter gene expression was measured in transient cotransfection assays using 10 μg pSRα-CD28, 15 μg of the GFP or Nr2f6 expression vectors and 15 μg of the promoter firefly luciferase reporter (RLU1). The latter were a NF-AT:AP-1 composite site reporter (Macian et al., 2001), a NF-AT reporter construct containing three tandem copies of the NF-AT minimal consensus sequence and the proximal IL-17A promoter reporter (Liu et al., 2004). The proximal IL-17A promoter is also described elsewhere herein. After 21 h cells were stimulated with solid-phase CD3 and CD28 agonistic antibodies for 16 h or left unstimulated, as indicated and the firefly luciferase was measured employing the luciferase detection kit (Promega, Madison, Wis.) and the βJet-Luminometer (WALLAC, Turku, Finland)."}, "[2]": {"test_system": "IL-17A promoter:luciferase reporter", "experiment": "IL-17A promoter:luciferase reporter transrepression assay in Jurkat cells", "assay_type": "cell-based, human", "details": "transient overexpression in Jurkat cells", "description": "as §1"}, "CD4+ T cells": {"test_system": "CD4+ T cells", "experiment": "IL-2 secretion of transfected CD4+ T cells upon CD3 plus CD28 stimulation", "assay_type": "cell-based, mouse", "details": "vs control transfection", "description": "CD4+ T cells were negatively selected by magnetic cell sorting (Miltenyi Biotec). T cell populations were typically 95% CD4+, as determined by staining and flow cytometry. Cells were resuspended in solution from Nucleofactor mouse T cell kit and program X-01 following the Amaxa guidelines for cell-line transfection. In brief, up to 1×10^7 cells were mixed with 1.5 μM of synthetic ON-TARGETpIus siRNA predesigned by Dharmacon (i.e., order code 045088) as pool (see SEQ ID NOs: 19 to 26) or ON-TARGETplussiCONTROL nontargeting pool were nucleofected with the Amaxy Nucleofactor apparatus and immediately transferred into 37° C. prewarmed culture medium and cultured for a minimum of 24 hours before experimental analysis; see also FIG. 16.\nAnalysis of cytokine production: Cytokine production of mouse CD4^+ T cells after Th17 polarizing stimulation was assessed via the BioPlex technology (BioRad) according to manufacturer's instructions."}, "NR2F6": {"biological_target": "T1, NR2F6 (Homo sapiens, UniProt P10588)", "T1 construct": "expressed in transfected cells; host or cells: Jurkat T cells (transient electroporation)", "T1 sequence (P10588 1-404)": "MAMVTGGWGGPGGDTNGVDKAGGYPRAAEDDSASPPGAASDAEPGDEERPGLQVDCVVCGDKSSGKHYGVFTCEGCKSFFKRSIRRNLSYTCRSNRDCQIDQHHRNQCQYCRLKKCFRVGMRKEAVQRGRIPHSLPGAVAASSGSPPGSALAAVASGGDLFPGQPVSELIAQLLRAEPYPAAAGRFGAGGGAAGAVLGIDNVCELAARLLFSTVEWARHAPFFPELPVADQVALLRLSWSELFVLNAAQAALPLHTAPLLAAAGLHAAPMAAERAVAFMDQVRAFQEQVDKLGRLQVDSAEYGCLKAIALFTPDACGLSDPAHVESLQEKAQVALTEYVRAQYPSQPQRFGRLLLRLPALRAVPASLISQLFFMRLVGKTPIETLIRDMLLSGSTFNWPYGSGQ", "experiment": "RARE containing renilla luciferase reporter assay in NR2F6 transfected Jurkat T cells", "assay_type": "cell-based", "details": "CD3/CD28 with or without RA 20 microM", "description": "Jurkat T cells were maintained in RPMI medium supplemented with 10% FCS (Life Technologies, Inc.). Transient transfection of cells was performed by electroporation in a BTX-T820 ElectroSquarePorator (ITC, Biotech, Heidelberg, Germany) apparatus using predetermined optimal conditions: 2×10^7 cells at 450 V/cm and 5 pulses of 99 msec. Optimix medium (Equibio, Kent, UK) was used for studies of promoter reporter gene expression. Reporter gene expression was measured in co-transfection assays using 15 μg of the NR2F6 wild type or mutant expression vectors and 5 μg of the RARE containing renilla luciferase reporter vector pTK-Renilla-Luc (Promega, Medison, Wi). After 24 hrs cells were stimulated with solid phase CD3 and CD28 antibodies with or without retinoic acid (RA at 20 microM) for 16 hrs, as indicated."}, "NR2F6-ER": {"biological_target": "T2, NR2F6-ER (UniProt P10588+P19785, G525R)", "T2 construct": "expressed in transfected cells; host or cells: Jurkat T cells (transient electroporation)", "T2 sequence (P10588+P19785 with tags, fused parts or gaps P19785:G525R)": "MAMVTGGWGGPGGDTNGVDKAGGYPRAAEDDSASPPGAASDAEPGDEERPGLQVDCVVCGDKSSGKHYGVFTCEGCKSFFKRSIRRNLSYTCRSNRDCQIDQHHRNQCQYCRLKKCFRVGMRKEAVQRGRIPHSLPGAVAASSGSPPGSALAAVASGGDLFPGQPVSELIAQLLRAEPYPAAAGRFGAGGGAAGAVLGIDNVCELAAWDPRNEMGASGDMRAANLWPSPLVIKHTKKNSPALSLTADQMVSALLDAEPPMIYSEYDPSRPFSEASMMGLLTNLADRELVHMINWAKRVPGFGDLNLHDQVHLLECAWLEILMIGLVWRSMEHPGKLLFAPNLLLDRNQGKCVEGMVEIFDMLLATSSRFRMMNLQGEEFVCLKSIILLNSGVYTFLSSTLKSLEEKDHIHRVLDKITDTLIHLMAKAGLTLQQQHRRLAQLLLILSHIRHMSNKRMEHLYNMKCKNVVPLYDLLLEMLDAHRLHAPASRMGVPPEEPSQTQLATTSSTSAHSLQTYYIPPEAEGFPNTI", "experiment": "NF-AT/AP-1 promoter luciferase reporter assay in NR2F6-ER transfected Jurkat T cells", "assay_type": "cell-based, human", "details": "transiently transfected Jurkat T cells", "protocol": "Jurkat T cells were maintained in RPMI medium supplemented with 10% FCS (Life Technologies, Inc.). Transient transfection of cells was performed by electroporation in a BTX-T820 ElectroSquarePorator (ITC, Biotech, Heidelberg, Germany) apparatus using predetermined optimal conditions: 2×10^7 cells at 450 V/cm and 5 pulses of 99 msec. Optimix medium (Equibio, Kent, UK) was used for studies of promoter reporter gene expression. Reporter gene expression was measured in co-transfection assays using 15 μg of the NR2F6 wild-type or mutant expression vectors and 15 μg of the AP-1/NF-AT promoter firefly luciferase reporter (RLU1). For normalization 0.3 μg of the renilla luciferase reporter vector pTK-Renilla-Luc (Promega, Medison, Wi) (RLU2) has been used."}}}
{"molecule": "NR2F6: recombinant overexpressed nuclear receptor subfamily 2, group F, member 6 (Ear2), SEQ ID NO: 2 (protein, listed as Homo sapiens) MAMVTGGWGGPGGDTNGVDKAGGYPRAAEDDSASPPGAASDAEPGDEERPGLQVDCVVCGDKSSGKHYGVFTCEGCKSFFKRSIRRNLSYTCRSNRDCQIDQHHRNQCQYCRLKKCFRVGMRKEAVQRGRIPHSLPGAVAASSGSPPGSALAAVASGGDLFPGQPVSELIAQLLRAEPYPAAAGRFGAGGGAAGAVLGIDNVCELAARLLFSTVEWARHAPFFPELPVADQVALLRLSWSELFVLNAAQAALPLHTAPLLAAAGLHAAPMAAERAVAFMDQVRAFQEQVDKLGRLQVDSAEYGCLKAIALFTPDACGLSDPAHVESLQEKAQVALTEYVRAQYPSQPQRFGRLLLRLPALRAVPASLISQLFFMRLVGKTPIETLIRDMLLSGSTFNWPYGSGQ", "values": [{"measurement": "trans-repression of CD3/CD28 activation-induced NFAT/AP-1 promoter:luciferase reporter", "setting": "[1]", "value": "robust and reproducible trans-repression"}, {"measurement": "trans-repression of CD3/CD28 activation-induced IL-17A promoter:luciferase reporter", "setting": "[2]", "value": "robust and reproducible trans-repression"}, {"measurement": "IL-2 cytokine secretion", "setting": "CD4+ T cells", "value": "significantly suppresses IL-2 secretion responses"}]}
{"molecule": "S83E: S83E mutant of NR2F6, Ser-83 phospho-mimic, DNA-binding deficient, SEQ ID NO: 8 (protein, listed as Homo sapiens, VARIANT (83)..(83) S83E mutation) MAMVTGGWGGPGGDTNGVDKAGGYPRAAEDDSASPPGAASDAEPGDEERPGLQVDCVVCGDKSSGKHYGVFTCEGCKSFFKREIRRNLSYTCRSNRDCQIDQHHRNQCQYCRLKKCFRVGMRKEAVQRGRIPHSLPGAVAASSGSPPGSALAAVASGGDLFPGQPVSELIAQLLRAEPYPAAAGRFGAGGGAAGAVLGIDNVCELAARLLFSTVEWARHAPFFPELPVADQVALLRLSWSELFVLNAAQAALPLHTAPLLAAAGLHAAPMAAERAVAFMDQVRAFQEQVDKLGRLQVDSAEYGCLKAIALFTPDACGLSDPAHVESLQEKAQVALTEYVRAQYPSQPQRFGRLLLRLPALRAVPASLISQLFFMRLVGKTPIETLIRDMLLSGSTFNWPYGSGQ", "values": [{"measurement": "trans-repression of CD3/CD28 activation-induced NFAT/AP-1 promoter:luciferase reporter", "setting": "[1]", "value": "not able to suppress"}, {"measurement": "transcriptional repressor activity (RARE reporter)", "setting": "NR2F6", "value": "lost its transcriptional repressor activity"}, {"measurement": "trans-repression of CD3/CD28 activation-induced IL-17A promoter:luciferase reporter", "setting": "[2]", "value": "not able to suppress"}]}
{"molecule": "C112S: C112S zinc finger mutant of NR2F6, defective in DNA binding, SEQ ID NOs: 30 and 31 (protein, /note=“Description of artificial sequence amino acid sequence of C112S mutated NR2F6”) MAMVTGGWGGPGGDTNGVDKAGGYPRAAEDDSASPPGAASDAEPGDEERPGLQVDCVVCGDKSSGKHYGVFTCEGCKSFFKRSIRRNLSYTCRSNRDCQIDQHHRNQCQYSRLKKCFRVGMRKEAVQRGRIPHSLPGAVAASSGSPPGSALAAVASGGDLFPGQPVSELIAQLLRAEPYPAAAGRFGAGGGAAGAVLGIDNVCELAARLLFSTVEWARHAPFFPELPVADQVALLRLSWSELFVLNAAQAALPLHTAPLLAAAGLHAAPMAAERAVAFMDQVRAFQEQVDKLGRLQVDSAEYGCLKAIALFTPDACGLSDPAHVESLQEKAQVALTEYVRAQYPSQPQRFGRLLLRLPALRAVPASLISQLFFMRLVGKTPIETLIRDMLLSGSTFNWPYGSGQ", "values": [{"measurement": "trans-repression of CD3/CD28 activation-induced NFAT/AP-1 promoter:luciferase reporter", "setting": "[1]", "value": "lost its transcriptional repressor activity"}, {"measurement": "transcriptional repressor activity (RARE reporter)", "setting": "NR2F6", "value": "lost its transcriptional repressor activity"}, {"measurement": "trans-repression of CD3/CD28 activation-induced IL-17A promoter:luciferase reporter", "setting": "[2]", "value": "lost its transcriptional repressor activity"}]}
{"molecule": "NR2F2 wild type: the closest relative of NR2F6, used as control (protein, UniProt P24468 1-414, looked up) COUP transcription factor 2: MAMVVSTWRDPQDEVPGSQGSQASQAPPVPGPPPGAPHTPQTPGQGGPASTPAQTAAGGQGGPGGPGSDKQQQQQHIECVVCGDKSSGKHYGQFTCEGCKSFFKRSVRRNLSYTCRANRNCPIDQHHRNQCQYCRLKKCLKVGMRREAVQRGRMPPTQPTHGQFALTNGDPLNCHSYLSGYISLLLRAEPYPTSRFGSQCMQPNNIMGIENICELAARMLFSAVEWARNIPFFPDLQITDQVALLRLTWSELFVLNAAQCSMPLHVAPLLAAAGLHASPMSADRVVAFMDHIRIFQEQVEKLKALHVDSAEYSCLKAIVLFTSDACGLSDVAHVESLQEKSQCALEEYVRSQYPNQPTRFGKLLLRLPSLRTVSSSVIEQLFFVRLVGKTPIETLIRDMLLSGSSFNWPYMAIQ", "values": [{"measurement": "trans-repression of CD3/CD28 activation-induced NFAT/AP-1 promoter:luciferase reporter", "setting": "[1]", "value": "not able to suppress"}, {"measurement": "trans-repression of CD3/CD28 activation-induced IL-17A promoter:luciferase reporter", "setting": "[2]", "value": "not able to suppress"}]}
{"molecule": "NR2F6-ER: conditionally activated NR2F6 estrogen-receptor ligand binding domain mutant (ERmut-LBD) fusion protein, SEQ ID NO: 10 (protein, /note=“Description of artificial sequence amino acid sequence of NR2F6 wild-type Er-LBD fusion mutant”) MAMVTGGWGGPGGDTNGVDKAGGYPRAAEDDSASPPGAASDAEPGDEERPGLQVDCVVCGDKSSGKHYGVFTCEGCKSFFKRSIRRNLSYTCRSNRDCQIDQHHRNQCQYCRLKKCFRVGMRKEAVQRGRIPHSLPGAVAASSGSPPGSALAAVASGGDLFPGQPVSELIAQLLRAEPYPAAAGRFGAGGGAAGAVLGIDNVCELAWDPRNEMGASGDMRAANLWPSPLVIKHTKKNSPALSLTADQMVSALLDAEPPMIYSEYDPSRPFSEASMMGLLTNLADRELVHMINWAKRVPGFGDLNLHDQVHLLECAWLEILMIGLVWRSMEHPGKLLFAPNLLLDRNQGKCVEGMVEIFDMLLATSSRFRMMNLQGEEFVCLKSIILLNSGVYTFLSSTLKSLEEKDHIHRVLDKITDTLIHLMAKAGLTLQQQHRRLAQLLLILSHIRHMSNKGMEHLYNMKCKNVVPLYDLLLEMLDAHRLHAPASRMGVPPEEPSQTQLATTSSTSAHSLQTYYIPPEAEGFPNTI", "values": [{"measurement": "CD3/CD28-induced NF-AT/AP-1 composite element-dependent reporter", "setting": "NR2F6-ER", "value": "repressed"}]}
